Data set [1] deals with the molecule itself. The data set is described as follows: gel shift assay of the Examples. In general terms: A gel shift assay detects complexes by their altered migration in electrophoresis.
The target in the next data set is T1, RISBZ1 (Oryza sativa, UniProt Q6ZLB0 SEQ:1-436).
T1 sequence: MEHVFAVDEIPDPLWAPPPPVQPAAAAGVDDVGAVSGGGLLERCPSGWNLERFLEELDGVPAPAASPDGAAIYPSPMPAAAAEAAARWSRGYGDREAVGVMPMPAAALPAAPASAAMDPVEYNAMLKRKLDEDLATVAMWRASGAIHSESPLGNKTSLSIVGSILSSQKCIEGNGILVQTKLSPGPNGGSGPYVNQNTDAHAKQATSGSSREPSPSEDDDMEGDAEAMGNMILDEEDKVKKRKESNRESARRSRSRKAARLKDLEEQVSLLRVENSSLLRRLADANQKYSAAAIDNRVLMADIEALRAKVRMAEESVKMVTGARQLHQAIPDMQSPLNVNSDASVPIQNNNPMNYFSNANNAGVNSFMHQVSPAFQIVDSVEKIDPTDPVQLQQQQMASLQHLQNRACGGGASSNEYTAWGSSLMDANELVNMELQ
The data set is described as follows: cell_activity; 1x21-bp reporter; 5x21-bp 127.1-fold. An excerpt:
(§1) In addition, reporter plasmids, into which the GUS gene, and one or three repeat(s) of the 12-bp GCN4 motif or one or five repeat(s) of the 21-bp GCN4 motif were inserted, were constructed. For negative control experiments, a reporter plasmid comprising four repeats of a mutant 12-bp GCN4 motif and the GUS reporter gene was used. The mutant 12-bp GCN4 motif has a mutation in the target sequence that is recognized by the RISBZ1 and O2. These plasmid constructs were introduced alone or in combination with other reporter or effector plasmid into rice protoplast cells prepared from its callus culture, and the GUS activity was assayed. When the reporter plasmid or effector plasmid was introduced alone into the protoplast, the GUS activity was detected at a low level. […] Even in the presence of these effector plasmids, the transcriptional activity of the GUS gene downstream of the mutant 12-bp GCN4 motif was the same level as that of background. […] The transcriptional activity of the reporter gene induced by the RISBZ1 gene product was slightly higher than that induced by the O2 gene product. […] 1 to 12 copies of 21-bp GCN motif were assayed, and the transcriptional activity was enhanced proportionately up to 9 copies. […]

For another data set, the target named is T2, Opaque2 (Zea mays, UniProt P12959 P12959:1-453).
T2 sequence: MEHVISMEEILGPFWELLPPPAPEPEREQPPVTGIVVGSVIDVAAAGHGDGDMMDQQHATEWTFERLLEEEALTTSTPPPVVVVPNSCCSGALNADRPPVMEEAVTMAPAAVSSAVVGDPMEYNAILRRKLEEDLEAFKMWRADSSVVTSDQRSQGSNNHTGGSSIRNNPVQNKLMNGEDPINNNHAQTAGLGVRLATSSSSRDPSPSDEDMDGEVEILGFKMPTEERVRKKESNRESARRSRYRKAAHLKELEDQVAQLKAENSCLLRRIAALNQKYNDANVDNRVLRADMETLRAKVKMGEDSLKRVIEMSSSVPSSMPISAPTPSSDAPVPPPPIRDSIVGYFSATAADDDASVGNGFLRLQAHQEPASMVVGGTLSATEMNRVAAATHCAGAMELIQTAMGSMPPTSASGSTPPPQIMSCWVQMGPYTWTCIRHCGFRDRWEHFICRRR
The data set is described as follows: cell_activity; 1x21-bp reporter; 5x21-bp 114.7-fold.
Description: as §1

B1: full-length RISBZ1 protein (other)
chain: MEHVFAVDEIPDPLWAPPPPVQPAAAAGVDDVGAVSGGGLLERCPSGWNLERFLEELDGVPAPAASPDGAAIYPSPMPAAAAEAAARWSRGYGDREAVGVMPMPAAALPAAPASAAMDPVEYNAMLKRKLDEDLATVAMWRASGAIHSESPLGNKTSLSIVGSILSSQKCIEGNGILVQTKLSPGPNGGSGPYVNQNTDAHAKQATSGSSREPSPSEDDDMEGDAEAMGNMILDEEDKVKKRKESNRESARRSRSRKAARLKDLEEQVSLLRVENSSLLRRLADANQKYSAAAIDNRVLMADIEALRAKVRMAEESVKMVTGARQLHQAIPDMQSPLNVNSDASVPIQNNNPMNYFSNANNAGVNSFMHQVSPAFQIVDSVEKIDPTDPVQLQQQQMASLQHLQNRACGGGASSNEYTAWGSSLMDANELVNMELQ
notes: Untagged full-length protein translated in vitro from pET8c (TNT coupled wheat germ extract); the crude extract was used in the gel shift assay; also called rice seed b-Zipper 1
Consider B1, for which the binding result in data set [1] is on record as “binds”.

B2: 21-bp GCN4 reporter (dsDNA)
DNA 1: GTTTGTCATGGCTGAGTCATG
DNA 2: CATGACTCAGCCATGACAAAC
With B2, the values for the activity with RISBZ1 and with Opaque2 were 43.9 fold and 37.9 fold, respectively.

The values are drawn from patent US20040072159A1, “Bzip type transcription factors regulating the expression of rice storage protein” (published 2004).
